Holding throughout (assay): SPR; multi-cycle, equilibrium steady state affinity 1:1 binding model; biotinylated ADO or variant immobilised on a Biotin CAP chip (~2500-3000 RU), peptide injected; 4 °C; 20 mM HEPES pH 7.5, 500 mM NaCl, 10 mM DTT, 0.1% (v/v) tween-20; 50 μL/minute
Common to all, as to conditions: both partners purified
A general note: SPR reads the build-up and loss of mass on a sensor chip optically.

The target in assay [1] is T1, ADO-F101A, biotinylated (pQE80L-Navi-ADO) (human, UniProt Q96SZ5 1-270, F101A, biotin on the Avi tag).
T1 construct: Tag as in Dm1; source: E. coli Rosetta2(DE3), purified (Ni-NTA, SEC); not shown: Avi tag, N-terminal, kept; His6, N-terminal, kept
T1 sequence (looked up): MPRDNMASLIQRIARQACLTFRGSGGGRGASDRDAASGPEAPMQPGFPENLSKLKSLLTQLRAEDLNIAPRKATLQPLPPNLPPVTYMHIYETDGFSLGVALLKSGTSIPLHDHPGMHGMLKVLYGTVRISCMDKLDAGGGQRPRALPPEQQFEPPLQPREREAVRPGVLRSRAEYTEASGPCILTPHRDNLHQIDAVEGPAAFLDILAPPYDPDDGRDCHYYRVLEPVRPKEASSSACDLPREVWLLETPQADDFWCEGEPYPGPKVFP
The method, boiled down: (§1)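 Biotinylated full-length human ADO (wild type or engineered forms) was made in E. coli with a His tag, then purified by nickel affinity and gel filtration. It was captured on a Biotin CAP chip at about 2500–3000 RU in a Biacore T200, and peptides were flowed over it. The run was at 4 °C in HEPES pH 7.5 buffer with 500 mM NaCl, DTT and tween-20, at 50 μL/minute. Kd came from a 1:1 steady-state fit of multi-cycle equilibrium responses.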

The target in assay [2] is T2, ADO-Y87A, biotinylated (pQE80L-Navi-ADO) (human, UniProt Q96SZ5 1-270, Y87A, biotin on the Avi tag).
T2 construct: Tag as in Dm1; source: E. coli Rosetta2(DE3), purified (Ni-NTA, SEC); not shown: Avi tag, N-terminal, kept; His6, N-terminal, kept
T2 sequence (looked up): T1 sequence (looked up) with Y87A, A101F
In outline:
as §1

The target of assay [3] is T3, ADO-C220A, biotinylated (pQE80L-Navi-ADO) (human, UniProt Q96SZ5 1-270, C220A, biotin on the Avi tag).
T3 construct: Tag as in Dm1; source: E. coli Rosetta2(DE3), purified (Ni-NTA, SEC); not shown: Avi tag, N-terminal, kept; His6, N-terminal, kept
T3 sequence (looked up): T1 sequence (looked up) with A101F, C220A
In outline:
as §1

The target in assay [4] is T4, ADO-Y212A, biotinylated (pQE80L-Navi-ADO) (human, UniProt Q96SZ5 1-270, Y212A, biotin on the Avi tag).
T4 construct: Tag as in Dm1; source: E. coli Rosetta2(DE3), purified (Ni-NTA, SEC); not shown: Avi tag, N-terminal, kept; His6, N-terminal, kept
T4 sequence (looked up): T1 sequence (looked up) with A101F, Y212A
The method, boiled down:
as §1

Assay [5] has as its target T5, ADO-Y87F, biotinylated (pQE80L-Navi-ADO) (human, UniProt Q96SZ5 1-270, Y87F, biotin on the Avi tag).
T5 construct: Tag as in Dm1; source: E. coli Rosetta2(DE3), purified (Ni-NTA, SEC); not shown: Avi tag, N-terminal, kept; His6, N-terminal, kept
T5 sequence (looked up): T1 sequence (looked up) with Y87F, A101F
In outline: as §1

Substitutions are numbered along the chain they refer to.

B1: IL32_(2-15), synthetic peptide corresponding to the methionine excised N-terminus of IL32, residues 2-15 (peptide, UniProt P24001 2-15, looked up)
peptide: CFPKVLSDDMKKLK
notes: Interleukin 32 (IL32), residues 2-15, N-terminal Cys; also called IL32 peptide; source: synthetic peptide
Broadly, the Kd is the concentration at which binding is half-saturated. A higher Kd goes with weaker binding. Consider B1, for which the Kd in assay [1] was 37 µM; in assay [2], 4.2 µM; in assay [3], 1.3 µM; in assay [4], 29 µM; in assay [5], 0.32 µM.

B2: RGS5_(2-15), synthetic peptide corresponding to the methionine excised N-terminus of RGS5, residues 2 to 15 (peptide, UniProt O15539 2-15, looked up)
peptide: CKGLAALPHSCLER
notes: Regulator of G-protein signalling 5 (RGS5), residues 2 to 15, N-terminal Cys; also called RGS5 peptide; source: synthetic peptide
With B2, the Kd in assay [1] is 47 µM; in assay [2], 1.7 µM; in assay [3], 1.1 µM; in assay [4], 72 µM; in assay [5], 0.34 µM.

Source of the values: publication PMC12098869, “An mRNA-display derived cyclic peptide scaffold reveals the substrate binding interactions of an N-terminal cysteine oxidase” (Nature Communications, 2025).
